Results reported in the DeepSol protein solubility set.

Experiment: soluble on expression in E. coli; label from the status in PepcDB or PDB records

| Sequence | soluble on expression in E. coli |
| --- | --- |
| MSANLPPAFKPIAHYIKIANENASRDPVIYYWSLLCMALGPVETTFDEISWKLLQTSIRLEKDHINDRDSLREYIDEPGGVVNNCQRAQNISMEIEQKNVSCEKLREKIAKINQKILIGKGKLSEVNEELSKKQNFEESLKQKIEIMELQINKNQSKKDKEVKSINVLIRLVAYRKLTLIKEVMDLFKVKIDGGPASEAITTKNCQCQLIDTIRGLHIPQITHIFNHSEAPTLTALQNLTHLFNVICKVLHFAPKYPILTNLQIINPIDQKSSIFTEKCWKKKADREKLIEGMSWLSKNISHLRESCGIPTMATDRILGTLEEWIRLVIRKETVFERPINSIFSPANLLIDYQIPNISYHS | not soluble |
| MSANVDLNQRPDYDAVLQDIADYVLDYRIDSTEALDTARNCLMDTLGCGLLALRFPECTKHLGPLVEGTLVPHGARVPGTSFRLDPVKAAWDIGCIVRWLDYNDTWLAAEWGHPSDNLGGILAVADHLSQKRLANGEAPLSMRQVLEAMIMAHEIQGVIALENSFNRVGLDHVLLVKVASTAVCAKLMGADREQLLAALSHAFVDGQALRTYRHAPNAGSRKSWAAGDATSRGVRLADIALRGEMGIPGVLSAPQWGFYDVLFSHTSKDLATKPEDKRRFSFPQGYGSYVMENVLFKISFPAEFHAQTAAEAAVRLHPLVKDRLQRISRIVITTHESAIRIISKVGPLANPADRDHCLQYMTAVPLIFGDLVAEHYEDAFHAAHPLIDRLREKMEIVEEPRYSREYLEADKRSIANAVEVFFDDGSSTGQVAVEYPLGHRRRRAEGIPLLQEKFKANLATRFPPQRCQRIFDLCSHQASLEATPVNRFMDLLAI | not soluble |
| MSAQASRQKKSDQEQRAADQALLNAAIEDNAMEQDENFTVIDKLESSGISSGDISKLKEAGYYTYESLAFTTRRELRNVKGISDQKAEKIMKEAMKFVQMGFTTGAEVHVKRSQLVQIRTGSASLDRLLGGGIETGSITEVYGEYRTGKTQLCHSLAVLCQLPIDMGGGEGKCMYIDTNATFRPERIIAIAQRYNMDSAHVLENIAVARAYNSEHLMALIIRAGAMMSESRYAVVIVDCATAHFRNEYTGRGDLAERQMKLSAFLKCLAKLADEYGVAVIITNQVVAQVDGGASMFQADAKKPIGGHIIAHMSTTRLYLRKGKGENRVAKMVQSPNLPEAEATYSITNHGIEDARED | not soluble |
| MSAQRIQKVDILRYDPANDAEPHMQRFEVPFDETMSVLDAIGYVKDHLDKDLSYRWSCRMAICGSCGIMVNGVPKLACKSFLRDYPEGVKIEPLANFPIEKDLIVDMTPFIERLEAIKPYIIGNDRKPEDGTNLQTPEQMARYKQFAGCINCGLCYAACPQFGLNPEFLGPAALTLAHRYNLDSRDNGKAERMKLINGDNGAWGCTFVGYCSEVCPKHVDPAAAVNQGKVESSLDFVIAMLNPDGSPKKVEA | not soluble |
| MSAQYDLYETPDIKQTGEKQPLHPRIVPKGTIGQDEFLDRVHKFTGISRSLLAGAMQSFQNELKDLLANGWIVELGEIGYFSVSLQGPPVMHKKDVRAQSIKLKNINYLPTKQFKREVGYDMRLERTESLTRPKGNGRSEAECLALITAHLEKYPCMTRTDYCHMTGHDKKRALKELNAFIEKEILMRYGAGKQVVYAKKMI | not soluble |
| MSASAPAAEGEGTPTQPASEKEPEMPGPREESEEEEDEDDEEEEEEEKEKSLIVEGKREKKKVERLTMQVSSLQREPFTIAQGKGQKLCEIERIHFFLSKKKTDELRNLHKLLYNRPGTVSSLKKNVGQFSGFPFEKGSVQYKKKEEMLKKFRNAMLKSICEVLDLERSGVNSELVKRILNFLMHPKPSGKPLPKSKKTCSKGSKKERNSSGMARKAKRTKCPEILSDESSSDEDEKKNKEESSDDEDKESEEEPPKKTAKREKPKQKATSKSKKSVKSANVKKADSSTTKKNQNSSKKESESEDSSDDEPLIKKLKKPPTDEELKETIKKLLASANLEEVTMKQICKKVYENYPTYDLTERKDFIKTTVKELIS | soluble |
| MSASEFTLVPTTESDRTYIARLNFLTDVFGDEHADIGADFLEDYRFYVKQWDPTNGGLIAWSPKMIPAGGAWLVWGNNNDHGYGYVSEDIPEVAIAIEPRYRGKGVGSILLNKSLELARTLGAPGLSLSVDDGNPRAKKLYERLGFQHIRHSDAGFSIMCYRF | not soluble |
| MSASSLLEQRPKGQGNKVQNGSVHQKDGLNDDDFEPYLSPQARPNNAYTAMSDSYLPSYYSPSIGFSYSLGEAAWSTGGDTAMPYLTSYGQLSNGEPHFLPDAMFGQPGALGSTPFLGQHGFNFFPSGIDFSAWGNNSSQGQSTQSSGYSSNYAYAPSSLGGAMIDGQSAFANETLNKAPGMNTIDQGMAALKLGSTEVASSVPKVVGSAVGSGSITSNIVASSSLPPATIAPPKPASWADIASKPAKQQPKLKTKNGIAGSSLPPPPIKHNMDIGTWDNKGPVAKAPSQALVQNIGQPTQGSPQPVGQQANNSPPVAQASVGQQTQPLPPPPPQPAQLSVQQQAAQPTRWVAPRNRGSGFGHNGVDGNGVGQSQAGSGSTPSEPHPVLEKLRSINNYNPKDFDWNLKHGRVFIIKSYSEDDIHRSIKYNIWCSTEHGNKRLDAAYRSMNGKGPVYLLFSVNGSGHFCGVAEMKSAVDYNTCAGVWSQDKWKGRFDVRWIFVKDVPNSQLRHIRLENNENKPVTNSRDTQEVPLEKAKQVLKIIASYKHTTSIFDDFSHYEKRQEEEESVKKERQGRGK | soluble |
| MSATAKHDSNASPNSDSEDGHHHNNKKECAIEYLKARLNSASAVACGYLQAFVSKTQDFAKVCFLELQNPVVLVNLLLHSSVVCYLCNGYANHNARFLKGKPNSTVLATTAGALGLLTLDGIISKKYYSRYDKK | soluble |
| MSCINLPTVLPGSPSKTRGQIQVILGPMFSGKSTELMRRVRRFQIAQYKCLVIKYAKDTRYSSSFCTHDRNTMEALPACLLRDVAQEALGVAVIGIDEGQFFPDIVEFCEAMANAGKTVIVAALDGTFQRKPFGAILNLVPLAESVVKLTAVCMECFREAAYTKRLGTEKEVEVIGGADKYHSVCRLCYFKKASGQPAGPDNKENCPVPGKPGEAVAARKLFAPQQILQCSPAN | not soluble |
| MSCSSSSMLFLVLIATTVLIAESRVFYNRFDGGLSSDRFMEQKRDGAEASYDYDANQVIRNTMKRNRQCLLNAGLSQGCDFSDLLHAQTQARKFMSFAGPGK | not soluble |
| MSCVHYKFSSKLNYDTVTFDGLHISLCDLKKQIMGREKLKAADSDLQITNAQTKEEYTDDNALIPKNSSVIVRRIPIGGVKSTSKTYVISRTEPVMGTTKAVCKNTITLFLHNCFYLYNVSVT | not soluble |
| MSDAGGDVQVAPAAVAQGPMDKEGALRAVLRAAHHADGLAKGLHETCKALDKREAHFCVLAENCDEPQYVKLVETLCAEHQIPLIKVADKKIIGEYCGLCKYDKEGKARKVVGCSSAVVTNWGNEEQGRAILTDYFASKN | not soluble |
| MSDDKFDAIVVGAGVAGSVAALVMARAGLDVLVIERGDSAGCKNMTGGRLYAHTLEAIIPGFAVSAPVERKVTREKISFLTEESAVTLDFHRGQPDVPQHASYTVLRNRLDPWLMEQAEQAGAQFIPGVRVDALVREGNKVTGVQAGDDILEANVVILADGVNSMLGRSLGMVPASDPHHYAVGVKEVIGLTPEQINDRFNITGEEGAAWLFAGSPSDGLMAGGFLYTNKDSISLGLVCGLGDIAHAQKSVPQMLEDFKQHPAIRPLISGGKLLEYSAHMVPEGGLAMVPQLVNEGVMIVGDAAGFCLNLGFTVRGMDLAIASAQAAATTVIAAKERADFSANSLAQYKRELEQSCVMRDMQHFRKIPALMENPRLFSQYPRMVADIMNEMFTIDGKPNQPVRKMIMGHAKKIGLINLLKDGIKGATAL | not soluble |
| MSDEKSTTPTAQLDAPADGNMNDLTSLIQGVLQQTQDRFQHMSDQIIRRIDDMTTRIDDLEKNINDLLQSNQVEHPPSAQ | not soluble |
| MSDESANPSCISHLSIGTNDFPRARAFYDAVMAALGCKVILEYPGAVAYGKLYPEFWVQAPIDGRPASVGNGSHVGFFADSKAQVDAFHAAALAAGARDEGAPGPRPLYGEPYYGCFIRDLDGHKVEASYWDMSQGFDAHDHAH | not soluble |
| MSDFLKLVGENIRFLRKKRGLTQEELAEQINLQQAYIGGVERGERNISMLTLQKIAVGLEVSPDEVLNFSNVNLIDNPQREESLSIITSLLHQKNVNELQFILKFLYNFSEFVESNSNK | not soluble |
